Where two headings read alike, the source gives them in different places.
How the values were obtained:
Test in all cases: EMSA
RecQ helicase [1] = molecular target: T1, RecQ helicase (Escherichia coli, UniProt P15043 1-609)
RecQ helicase [2] = molecular target: T1, RecQ helicase; remark: listed apart in the source
RecQ helicase [3] = molecular target: T1, RecQ helicase; remark: listed apart in the source

T1 sequence (P15043 whole entry): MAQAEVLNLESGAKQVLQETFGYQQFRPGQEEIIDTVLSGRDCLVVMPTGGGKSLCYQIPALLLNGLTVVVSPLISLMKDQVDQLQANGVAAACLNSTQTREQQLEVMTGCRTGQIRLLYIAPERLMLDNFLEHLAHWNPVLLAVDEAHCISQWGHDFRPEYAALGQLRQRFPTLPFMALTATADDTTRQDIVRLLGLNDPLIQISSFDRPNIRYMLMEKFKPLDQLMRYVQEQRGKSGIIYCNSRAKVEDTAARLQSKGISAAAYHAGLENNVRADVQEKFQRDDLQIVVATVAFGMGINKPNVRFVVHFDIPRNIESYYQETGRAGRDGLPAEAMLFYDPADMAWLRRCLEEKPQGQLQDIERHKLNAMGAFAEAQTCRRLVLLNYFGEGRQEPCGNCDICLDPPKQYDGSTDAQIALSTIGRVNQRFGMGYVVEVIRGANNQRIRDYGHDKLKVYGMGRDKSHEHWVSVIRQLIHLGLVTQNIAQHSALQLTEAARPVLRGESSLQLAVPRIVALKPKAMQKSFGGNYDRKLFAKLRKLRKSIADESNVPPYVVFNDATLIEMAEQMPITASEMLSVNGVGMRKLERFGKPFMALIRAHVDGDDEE

B1: dT52 (ssDNA)
DNA: TTTTTTTTTTTTTTTTTTTTTTTTTTTTTTTTTTTTTTTTTTTTTTTTTTTT
Kd (RecQ helicase [1]): 150 ± 20 nM
Kd (RecQ helicase [2]): 170 ± 10 nM

TTTTTTTTTTTTTTTTTTTTTTTTT (ssDNA) [dT25]
Kd (RecQ helicase [1]): 400 ± 60 nM
Kd (RecQ helicase [2]): 1000 ± 100 nM

TTTTTT (ssDNA) [dT6]
binding result (RecQ helicase [3]): no binding

— PMC3330151
